According to patent publication US20220251236A1 (Boehringer Ingelheim, published 2022):

T1: EGF2+3
T1 construct: also called Hu DLL3 EGF2+3 on HEK293 cells
T1 membrane-anchored DLL3 subdomain construct: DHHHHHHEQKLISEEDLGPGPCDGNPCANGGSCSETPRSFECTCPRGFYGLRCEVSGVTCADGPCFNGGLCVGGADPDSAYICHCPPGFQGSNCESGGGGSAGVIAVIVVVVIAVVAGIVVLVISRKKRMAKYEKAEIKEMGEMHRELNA

T2: EGF5+6
T2 construct: also called Hu DLL3 EGF5+6 on HEK293 cells
T2 membrane-anchored DLL3 subdomain construct: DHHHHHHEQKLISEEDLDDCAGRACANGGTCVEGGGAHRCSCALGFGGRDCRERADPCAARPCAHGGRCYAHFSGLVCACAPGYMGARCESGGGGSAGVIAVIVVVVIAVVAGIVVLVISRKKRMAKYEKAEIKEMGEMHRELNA

T3: EGF1+2
T3 construct: also called Hu DLL3 EGF1+2 on HEK293 cells
T3 membrane-anchored DLL3 subdomain construct: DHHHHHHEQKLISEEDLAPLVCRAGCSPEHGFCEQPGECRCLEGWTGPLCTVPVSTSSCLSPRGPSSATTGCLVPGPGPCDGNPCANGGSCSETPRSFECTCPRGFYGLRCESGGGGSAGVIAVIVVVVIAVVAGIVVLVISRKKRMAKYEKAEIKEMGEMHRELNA

T4: EGF6+MEMBRANE PROXIMAL PEPTIDE
T4 construct: also called Hu DLL3 EGF6+membrane proximal peptide on HEK293 cells
T4 membrane-anchored DLL3 subdomain construct: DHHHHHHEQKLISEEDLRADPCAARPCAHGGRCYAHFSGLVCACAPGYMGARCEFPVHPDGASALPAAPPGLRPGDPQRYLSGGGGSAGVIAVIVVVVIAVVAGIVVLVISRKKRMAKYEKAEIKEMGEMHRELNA

T5: EGF4+5
T5 construct: also called Hu DLL3 EGF4+5 on HEK293 cells
T5 membrane-anchored DLL3 subdomain construct: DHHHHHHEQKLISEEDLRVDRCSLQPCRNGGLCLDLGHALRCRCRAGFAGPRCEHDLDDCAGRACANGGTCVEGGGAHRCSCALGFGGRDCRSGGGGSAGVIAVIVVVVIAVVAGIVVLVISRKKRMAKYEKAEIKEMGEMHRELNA

T6: EGF3+4
T6 construct: also called Hu DLL3 EGF3+4 on HEK293 cells
T6 membrane-anchored DLL3 subdomain construct: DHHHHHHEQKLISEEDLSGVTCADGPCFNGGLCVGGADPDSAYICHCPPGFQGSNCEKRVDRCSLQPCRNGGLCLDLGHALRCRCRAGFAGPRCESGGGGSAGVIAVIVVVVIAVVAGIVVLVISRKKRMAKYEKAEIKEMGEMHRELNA

T7: Human DLL3-His (human, UniProt Q9NYJ7 27-492)
T7 construct: also called huDLL3-His; hu DLL3
T7 sequence: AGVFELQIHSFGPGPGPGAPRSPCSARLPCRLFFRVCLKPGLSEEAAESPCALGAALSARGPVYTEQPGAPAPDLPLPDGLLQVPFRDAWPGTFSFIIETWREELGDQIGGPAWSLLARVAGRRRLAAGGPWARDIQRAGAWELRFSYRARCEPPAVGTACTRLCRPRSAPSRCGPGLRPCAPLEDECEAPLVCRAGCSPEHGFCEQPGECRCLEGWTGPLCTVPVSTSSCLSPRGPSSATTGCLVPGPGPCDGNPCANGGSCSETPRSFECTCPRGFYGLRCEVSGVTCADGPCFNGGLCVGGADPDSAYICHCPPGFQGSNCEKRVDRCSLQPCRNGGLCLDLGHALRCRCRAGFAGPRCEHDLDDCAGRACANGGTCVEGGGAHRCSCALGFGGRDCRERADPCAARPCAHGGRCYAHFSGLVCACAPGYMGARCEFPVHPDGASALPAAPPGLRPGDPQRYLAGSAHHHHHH

B1: DLL3#8/CD3#1 (bispecific antibody, human IgG1, kappa, lambda, L234A L235A)
chain 1: not shown
chain 2: EAVVTQEPSLTVSPGGTVTLTCRSSTGAVTTSNYANWVQEKPGQLPRGLIGGTNKRAPWVPARFSGSLLGGKAALTLSGAQPEDEAEYFCALWYSNLWVFGGGTKLTVLGQPKAAPSVTLFPPSSEELQANKATLVCLISDFYPGAVKVAWKADGSPVNTGVETTTPSKQSNNKYAASSYLSLTPEQWKSHRSYSCQVTHEGSTVEKTVAPAECSGGGGSEGKSSGSGSESKSTEGKSSGSGSESKSTGGGGSEVQLVESGGGLVQPGGSLKLSCAASGFTFNTYAMNWVRQAPGKGLEWVARIRSKYNNYATYYADSVKDRFTISRDDSKNTAYLQMNNLKTEDTAVYYCVRHGNFGNSYVSWFAYWGQGTLVTVSAASTKGPSVFPLAPSSKSTSGGTAALGCLVKDYFPEPVTVSWNSGALTSGVHTFPAVLQSSGLYSLSSVVTVPSSSLGTQTYICNVNHKPSNTKVDKRVEPKSCDKTHTCPPCPAPEAAGGPSVFLFPPKPKDTLMISRTPEVTCVVVDVSHEDPEVKFNWYVDGVEVHNAKTKPREEQYNSTYRVVSVLTVLHQDWLNGKEYKCKVSNKALPAPIEKTISKAKGQPREPQVYTLPPSREEMTKNQVSLSCAVKGFYPSDIAVEWESNGQPENNYKTTPPVLDSDGSFFLVSKLTVDKSRWQQGNVFSCSVMHEALHNRFTQKSLSLSPG
notes: Heterodimer of one DLL3 chain and one CD3 chain (scFab-Fc, knob-in-hole)
B2: DLL3#10/CD3#1 (bispecific antibody, human IgG1, kappa, lambda, L234A L235A)
chain 1: EIVLTQSPGTLSLSPGERATLSCRASQSLNSIFLAWYQQKPGQAPWLLIYGASSRATGIPDRFSGSGSGTDFTLTISRLEPEDFAVYFCQQYGGSMNTFGQGTKLEIKRTVAAPSVFIFPPSDEQLKSGTASVVCLLNNFYPREAKVQWKVDNALQSGNSQESVTEQDSKDSTYSLSSTLTLSKADYEKHKVYACEVTHQGLSSPVTKSFNRGECGGGGSEGKSSGSGSESKSTEGKSSGSGSESKSTGGGGSQVQLVQSGAEVKKPGASVKVSCKASGYTFTGYYMHWVRLAPGQGLEWMGWINPNSGGTIFAQRFQGRVTMTRDTSISTVYMDLNRLRSDDTAVYYCARDFGDTVGNAFDIWGQGTMVTVSSASTKGPSVFPLAPSSKSTSGGTAALGCLVKDYFPEPVTVSWNSGALTSGVHTFPAVLQSSGLYSLSSVVTVPSSSLGTQTYICNVNHKPSNTKVDKRVEPKSCDKTHTCPPCPAPEAAGGPSVFLFPPKPKDTLMISRTPEVTCVVVDVSHEDPEVKFNWYVDGVEVHNAKTKPREEQYNSTYRVVSVLTVLHQDWLNGKEYKCKVSNKALPAPIEKTISKAKGQPREPQVYTLPPSREEMTKNQVSLWCLVKGFYPSDIAVEWESNGQPENNYKTTPPVLDSDGSFFLYSKLTVDKSRWQQGNVFSCSVMHEALHNHYTQKSLSLSPG
chain 2: B1 chain 2
notes: as for B1
B3: DLL3#12/CD3#1 (bispecific antibody, human IgG1, kappa, lambda, L234A L235A)
chain 1: QVVLTQSPAIMSASPGEKVTITCSASSSVTYIHWFQQNPGTSPKLWIYRTSYLASGVPARFSGSGSGTSYSLTISRMEAEDAATYYCQQRSSYPRTFGGGTKLEIKRTVAAPSVFIFPPSDEQLKSGTASVVCLLNNFYPREAKVQWKVDNALQSGNSQESVTEQDSKDSTYSLSSTLTLSKADYEKHKVYACEVTHQGLSSPVTKSFNRGECGGGGSEGKSSGSGSESKSTEGKSSGSGSESKSTGGGGSQVQLQQPGAEFVQPGSSVKMSCKASGYAFSDYWITWVKQRPGQGLEWIGDIYPGSGSTKSSEKFKNRATLTADTSSSTAYIQFSSLTPEDSAVYYCVSLYYYGSYYLDTWGQGTTLTVSSASTKGPSVFPLAPSSKSTSGGTAALGCLVKDYFPEPVTVSWNSGALTSGVHTFPAVLQSSGLYSLSSVVTVPSSSLGTQTYICNVNHKPSNTKVDKRVEPKSCDKTHTCPPCPAPEAAGGPSVFLFPPKPKDTLMISRTPEVTCVVVDVSHEDPEVKFNWYVDGVEVHNAKTKPREEQYNSTYRVVSVLTVLHQDWLNGKEYKCKVSNKALPAPIEKTISKAKGQPREPQVYTLPPSREEMTKNQVSLWCLVKGFYPSDIAVEWESNGQPENNYKTTPPVLDSDGSFFLYSKLTVDKSRWQQGNVFSCSVMHEALHNHYTQKSLSLSPG
chain 2: B1 chain 2
notes: as for B1

What was measured:
EGF2+3 = target: T1, EGF2+3; test: flow cytometry on HEK293 cells expressing the DLL3 subdomain construct, PE anti-human secondary, control: secondary antibody only
Description: (§1) DLL3/CD3 binding proteins were produced by transient transfection of CHO-E cells with the pTT5 vectors carrying the chain-encoding genes, as described in Example 2. […] Bound molecules were detected with PE-conjugated anti-human secondary antibody (Sigma-Aldrich, #P8047). As negative control, cells were incubated with secondary antibody only.
(§2) The samples were measured by flow-cytometry. […] The sequences of the epitope domains are listed in Example 5, Table 3.

EGF5+6 = target: T2, EGF5+6; test: as above
Description: as §1, §2

EGF1+2 [1] = target: T3, EGF1+2; test: as above
Description: as §1, §2

[2] = target: T4, EGF6+MEMBRANE PROXIMAL PEPTIDE; test: as above
Description: as §1, §2

Human CD3 E+G HuFc-6xHis = target: T8, Human CD3 E+G HuFc-6xHis (human); test: SPR (ProteOn XPR36), HuCD3E_HuCD3G-Fc amine-coupled, bispecific as analyte, Example 4B
T8 construct: also called hu CD3εγ-Fc
T8 sequence (chain, as listed by the source limits assumed): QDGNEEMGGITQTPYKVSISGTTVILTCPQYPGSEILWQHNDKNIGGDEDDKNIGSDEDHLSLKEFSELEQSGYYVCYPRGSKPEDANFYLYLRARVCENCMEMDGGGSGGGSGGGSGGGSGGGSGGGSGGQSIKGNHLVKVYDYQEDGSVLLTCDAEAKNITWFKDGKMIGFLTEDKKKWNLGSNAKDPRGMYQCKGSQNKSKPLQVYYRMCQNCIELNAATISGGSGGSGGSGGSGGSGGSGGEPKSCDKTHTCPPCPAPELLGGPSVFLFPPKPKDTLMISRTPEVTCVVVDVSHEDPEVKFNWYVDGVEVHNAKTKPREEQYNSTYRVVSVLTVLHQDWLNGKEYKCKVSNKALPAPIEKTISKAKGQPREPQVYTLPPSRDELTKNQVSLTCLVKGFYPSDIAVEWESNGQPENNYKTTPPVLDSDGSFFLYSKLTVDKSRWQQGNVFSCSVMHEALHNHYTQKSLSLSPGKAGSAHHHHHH
Method in brief: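 Human CD3ε/γ-Fc fusion is amine-coupled to the chip at pH 4.5. Anti-DLL3/CD3 bispecifics are injected as analyte in PBS-T-EDTA at 30 μl/min, with 600 s association and 1800 s dissociation. Binding kinetics are measured by SPR.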

[3] = target: T9, trypsin inhibitor from glycine max soybean (Glycine max (soybean)); test: SPR (Biacore T200), trypsin inhibitor on CM5 chip, sample at 1 µM
T9 construct: also called Tryp
T9 sequence (P01070 25-205): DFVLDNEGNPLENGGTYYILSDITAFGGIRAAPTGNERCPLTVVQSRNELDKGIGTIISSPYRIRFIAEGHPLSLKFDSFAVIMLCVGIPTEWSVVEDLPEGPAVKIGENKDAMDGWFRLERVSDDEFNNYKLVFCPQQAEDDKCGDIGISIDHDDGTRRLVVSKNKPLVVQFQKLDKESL
Source text: To prepare the surface for the non-specific binding experiment, chicken egg white lysozyme and trypsin inhibitor from glycine max soybean were coupled manually to a series S CM5 chip with the surface density of 3000-5000 RU using the amine coupling kit according to the manufacture instructions.

EGF4+5 [4] = target: T5, EGF4+5; test: flow cytometry on HEK293 cells expressing the DLL3 subdomain construct, 1.6 nM binder, PE anti-human secondary, control: secondary antibody only
Description: as §1, §2

EGF4+5 [5] = target: T5, EGF4+5; test: flow cytometry on HEK293 cells expressing the DLL3 subdomain construct, PE anti-human secondary, control: secondary antibody only
Description: as §1, §2

EGF3+4 = target: T6, EGF3+4; test: as above
Description: as §1, §2

Human DLL3-His = target: T7, Human DLL3-His; test: SPR (ProteOn XPR36), bispecific captured on protein A/G, hu DLL3 as analyte, Example 4B
Description: The binding affinity of purified DLL3/CD3 bispecific constructs for recombinant human DLL3-ECD and Fc-fusion protein of human CD3 εγ subunits was determined by Surface Plasmon Resonance (SPR), using a ProteOn XPR36 instrument (Bio-Rad).
For binding kinetic determination to DLL3, anti-DLL3/CD3 molecules were captured individually on the protein A/G surface vertically for 200 sec at a flowrate of 30 μl/min. The baseline was stabilized by injecting PBS-T-EDTA for 60 sec at a flowrate of 30 μl/min horizontally. The analyte (hu DLL3) was injected horizontally over the captured antibody for 300 sec at a flowrate of 30 μl/min and a dissociation for 1800 sec.

EGF1+2 [6] = target: T3, EGF1+2; test: flow cytometry on HEK293 cells expressing the DLL3 subdomain construct, 1.6 nM binder, PE anti-human secondary, control: secondary antibody only
Description: as §1, §2

Row | Binder | binding result (EGF2+3) | binding result (EGF5+6) | binding result (EGF1+2 [1]) | binding result [2] | Kd (Human CD3 E+G HuFc-6xHis) [nM] | Non-specific binding (RU) [3] [RU] | binding result (EGF4+5 [4]) | binding result (EGF4+5 [5]) | binding result (EGF3+4) | Kd (Human DLL3-His) [nM] | binding result (EGF1+2 [6])
1 | B1 | no binding (tested: 1.6 nM) | no binding (tested: 1.6 nM) | no binding (tested: 1.6 nM) | no binding (tested: 1.6 nM) | 2 | 18 | binds | – | – | – | –
2 | B2 | no binding (tested: 1.6 nM) | no binding (tested: 1.6 nM) | – | no binding (tested: 1.6 nM) | – | 12 | – | no binding (tested: 1.6 nM) | no binding (tested: 1.6 nM) | 0.141 | binds
3 | B3 | no binding (tested: 1.6 nM) | no binding (tested: 1.6 nM) | – | no binding (tested: 1.6 nM) | 2 | 9 | – | no binding (tested: 1.6 nM) | no binding (tested: 1.6 nM) | < 0.02 | binds
